B1: GST-Sec4 (natural protein)
chain: MSGLRTVSASSGNGKSYDSIMKILLIGDSGVGKSCLLVRFVEDKFNPSFITTIGIDFKIKTVDINGKKVKLQLWDTAGQERFRTITTAYYRGAMGIILVYDVTDERTFTNIKQWFKTVNEHANDEAQLLLVGNKSDMETRVVTADQGEALAKELGIPFIESSAKNDDNVNEIFFTLAKLIQEKIDSNKLVGVGNGKEGNISINSGSGNSSKSNCC
B2: purified full-length Sro7, soluble (natural protein)
chain: MFGSKRLKNVKEAFKSLKGQNSETPIENSKASFKSKNSKTSTISKDAKSSSSLKIPISSNNKNKIFSLAETNKYGMSSKPIAAAFDFTQNLLAIATVTGEVHIYGQQQVEVVIKLEDRSAIKEMRFVKGIYLVVINAKDTVYVLSLYSQKVLTTVFVPGKITSIDTDASLDWMLIGLQNGSMIVYDIDRDQLSSFKLDNLQKSSFFPAARLSPIVSIQWNPRDIGTVLISYEYVTLTYSLVENEIKQSFIYELPPFAPGGDFSEKTNEKRTPKVIQSLYHPNSLHIITIHEDNSLVFWDANSGHMIMARTVFETEINVPQPDYIRDSSTNAAKISKVYWMCENNPEYTSLLISHKSISRGDNQSLTMIDLGYTPRYSITSYEGMKNYYANPKQMKIFPLPTNVPIVNILPIPRQSPYFAGCHNPGLILLILGNGEIETMLYPSGIFTDKASLFPQNLSWLRPLATTSMAASVPNKLWLGALSAAQNKDYLLKGGVRTKRQKLPAEYGTAFITGHSNGSVRIYDASHGDIQDNASFEVNLSRTLNKAKELAVDKISFAAETLELAVSIETGDVVLFKYEVNQFYSVENRPESGDLEMNFRRFSLNNTNGVLVDVRDRAPTGVRQGFMPSTAVHANKGKTSAINNSNIGFVGIAYAAGSLMLIDRRGPAIIYMENIREISGAQSACVTCIEFVIMEYGDDGYSSILMVCGTDMGEVITYKILPASGGKFDVQLMDITNVTSKGPIHKIDAFSKETKSSCLATIPKMQNLSKGLCIPGIVLITGFDDIRLITLGKSKSTHKGFKYPLAATGLSYISTVEKNNDRKNLTVIITLEINGHLRVFTIPDFKEQMSEHIPFPIAAKYITESSVLRNGDIAIRVSEFQASLFSTVKEQDTLAPVSDTLYINGIRIPYRPQVNSLQWARGTVYCTPAQLNELLGGVNRPASKYKESIIAEGSFSERSSDDNNANHPEHQYTKPTRKGRNSSYGVLRNVSRAVETRWDAVEDRFNDYATAMGETMNEAVEQTGKDVMKGALGF

Tests used:
[1] = target: B2; test: pull-down
GST-Sec4 = target: B1; test: pull-down

binding result [1] | fold binding to GTPγS-bound Sec4 over GDP-bound Sec4 (GST-Sec4) [fold] | Binder
binds | – | B1
– | > 5 | B2

From article PMC3057708 (Molecular Biology of the Cell, 2011)
